# From paper PMC11166458, “Caskin2 is a novel talin- and Abi1-binding protein that promotes cell motility” (Journal of Cell Science, 2024)
# B1: GFP–Abi1-DAWN: GFP-tagged Abi1 mutant harboring the mutations D453A and W455N (protein)
# chain: MAELQMLLEEEIPSGKRALIESYQNLTRVADYCENNYIQATDKRKALEETKAYTTQSLASVAYQINALANNVLQLLDIQASQLRRMESSINHISQTVDIHKEKVARREIGILTTNKNTSRTHKIIAPANMERPVRYIRKPIDYTVLDDVGHGVKWLKAKHGNNQPARTGTLSRTNPPTQKPPSPPMSGRGTLGRNTPYKTLEPVKPPTVPNDYMTSPARLGSQHSPGRTASLNQRPRTHSGSSGGSGSRENSGSSSIGIPIAVPTPSPPTIGPAPGSAPGSQYGTMTRQISRHNSTTSSTSSGGYRRTPSVTAQFSAQPHVNGGPLYSQNSISIAPPPPPMPQLTPQIPLTGFVARVQENIADSPTPPPPPPPDDIPMFDDSPPPPPPPPVDYEDEEAAVVQYNDPYADGDPAWAPKNYIEKVVAIYDYTKDKDDELSFMEGAIIYVIKKNDAGNYEGVCNRVTGLFPGNYVESIMHYTD
# modifications: left off: GFP, end not stated, kept
# notes: GFP-tagged Abi1 mutant harboring the mutations D453A and W455N
# Tested on: Caskin2
# Test: GFP-Trap pulldown of Caskin2 by GFP-tagged Abi1 constructs in COS-7 cells
# Format: binding
# Settings: western blot
# Procedure: For transient expression, COS-7 cells were grown to 70% confluence in 10 cm culture dishes and transfected with plasmid DNAs using the DEAE–dextran method ([Schaapveld et al., 1998]). Briefly, 4.5 µg of plasmid DNA was mixed with 500 µg/ml DEAE–dextran in 2.5 ml PBS. Cells were washed two times with PBS and then incubated for 30 min at 37°C with the DEAE–dextran solution. Subsequently, 80 µM chloroquine was added to the cells in 10 ml DMEM with FCS and cells were incubated at 37°C for 3 h. After aspiration of the medium, the cells were treated with 3 ml of DMEM with FCS containing 10% DMSO for 2.5 min. The DMSO solution was then removed and replaced with fresh medium, after which the cells were further incubated for 48–72 h before analysis.
# For analysis of protein in whole-cell lysates, cells were washed three times with cold PBS, lysed in Nonidet P-40 lysis buffer [20 mM Tris-HCl pH 7.5, 100 mM NaCl, 1% NP-40), supplemented with Na3VO4 (1.5 mM), NaF (15 mM), protease inhibitor cocktail (1:1000; Sigma-Aldrich) and phosphatase inhibitor cocktail 3 (1:100; Sigma-Aldrich)] and cleared by centrifugation at 14,000 g for 1 h at 4°C. […]
# GFP-Trap pulldown experiments were performed as follows. Cleared lysates containing equal amounts of proteins, as determined by a Pierce™ BCA Protein Assay, were incubated with GFP-Trap agarose beads (Chromotek) in a rotation wheel for 6 h at 4°C. […]
molecule,measurement,value
B1,Caskin2 precipitation by Abi1 construct,unable to precipitate Caskin2
